# Substitutions are numbered along the chain they refer to. Where two headings read alike, the source gives them in different places.
# B1: anti-humanized TfR1 single-domain antibody-Fc fusion antibody 4C5-hFC1 (Fc fusion)
# chain (part 1 of 2): ESGGGLVQPGESLRLSCAASGSIWSIYTMGWYRQAPGLQRDFVGSIAREGGRRYAESVKDRFTISRDNAKNTMYLQMNSLKREDTAVYYCNAITSLGEYWGQGTQVTVSS
# B2: anti-humanized TfR1 single-domain antibody-Fc fusion antibody 7A3-hFC1 (Fc fusion)
# chain (part 1 of 2): B1 chain (part 1 of 2) with A18V, L38K, G44A, A47T, E49D, G50S, M73L, M77T, R82P, N91H
# B3: anti-humanized TfR1 single-domain antibody-Fc fusion antibody 5D3-hFC1 (Fc fusion)
# chain (part 1 of 2): ESGGGLVEPGGSLRLSCAASGNIFSINNMYWHRQAPGKQRELVGGITRGGITNYVDSVKGRFTISRDNAKNTVYLQMNSLKPEDTAVYFCNAHPWRLGIADYWGQGTQVTVSS
# B4: anti-humanized TfR1 single-domain antibody-Fc fusion antibody 8E10-hFC1 (Fc fusion)
# chain (part 1 of 2): ESGGGLVQAGGSLRLSCAFSGPPFSTYGMGWFRQAPGKEREFVATISGSGFTTTYADSVKGRFTISRDNAKNTVYLQMNSLKPGDTAVYYCAAGVLDGTNWHEYDYWGQGTQVTVSS
# B5: anti-humanized TfR1 single-domain antibody-Fc fusion antibody 7G5-hFC1 (Fc fusion)
# chain (part 1 of 2): ESGGGSVQPGGSLRLSCAVSGSIFSIDTMAWYRQAPGKQRELVAAITKGGSRNYADSVKGRFTISRDNAKNTVYLQMNSLKPEDTAVYYCLADRLFRDRSWGQGTQVTVSS
# B6: anti-humanized TfR1 single-domain antibody-Fc fusion antibody 2H7-hFC1 (Fc fusion)
# chain (part 1 of 2): ESGGGLVQPGESLRLSCVASGSIWSIYTMGWYRQAPGKQRDFVASITGDSTRTLESVKDRFIISRDNTKNTLYLQMNSLKPEDTAVYYCQAITSLGEYWGQGTQVTVSS
# B7: anti-humanized TfR1 single-domain antibody-Fc fusion antibody 5A3-hFC1 (Fc fusion)
# chain (part 1 of 2): ESGGGLVQAGGSLTLSCAVSRRAFNTKAMGWFRQAPGKEREFVATISWSGFSTNYADSVKGRFTISRDNAKNTVYLQMNSLKPGDTAVYYCAAGVLDGTNWHEYDYWGQGTQVTVSS
# B8: anti-humanized TfR1 single-domain antibody-Fc fusion antibody 7G10-hFC1 (Fc fusion)
# chain (part 1 of 2): ESGGGLVQAGASLKLSCNGSGRTFISYAMGWFRQAPGKQREFVAAERWSGSGIYYADSLKGRFTISRDNAKNTVYLEMNNLKPEDTAVYYCAAREGGLLHVATSYDYWGQGTQVTVSS
# B9: anti-humanized TfR1 single-domain antibody-Fc fusion antibody 7D10-hFC1 (Fc fusion)
# chain (part 1 of 2): ESGGGLVQPGGSLRLSCATSGGTFEMYAMAWFRQAPGKDREGVAGFSWRDSSTTYYSDSVKGRFTISRDNAKNTVYLQMNSLKPEDTAVYYCAARPYVSRWSESSGYDYWGQGTQVTVSS
# B10: anti-humanized TfR1 single-domain antibody-Fc fusion antibody 5D1-hFC1 (Fc fusion)
# chain (part 1 of 2): B1 chain (part 1 of 2) with A18V, L38K, G44A, A47T, E49D, Y54H, M73L, R82P, Y89S, N91L
# B11: anti-humanized TfR1 single-domain antibody-Fc fusion antibody 4D11-hFC1 (Fc fusion)
# chain (part 1 of 2): B6 chain (part 1 of 2) with G48R, T68A, Q90H
# Key:
# Experiment in all cases: ELISA
# [1] = target: T1, human recombinant TfR1 protein (amino acids 89-760) (human, UniProt P02786 89-760)
# T1 sequence (P02786 89-760): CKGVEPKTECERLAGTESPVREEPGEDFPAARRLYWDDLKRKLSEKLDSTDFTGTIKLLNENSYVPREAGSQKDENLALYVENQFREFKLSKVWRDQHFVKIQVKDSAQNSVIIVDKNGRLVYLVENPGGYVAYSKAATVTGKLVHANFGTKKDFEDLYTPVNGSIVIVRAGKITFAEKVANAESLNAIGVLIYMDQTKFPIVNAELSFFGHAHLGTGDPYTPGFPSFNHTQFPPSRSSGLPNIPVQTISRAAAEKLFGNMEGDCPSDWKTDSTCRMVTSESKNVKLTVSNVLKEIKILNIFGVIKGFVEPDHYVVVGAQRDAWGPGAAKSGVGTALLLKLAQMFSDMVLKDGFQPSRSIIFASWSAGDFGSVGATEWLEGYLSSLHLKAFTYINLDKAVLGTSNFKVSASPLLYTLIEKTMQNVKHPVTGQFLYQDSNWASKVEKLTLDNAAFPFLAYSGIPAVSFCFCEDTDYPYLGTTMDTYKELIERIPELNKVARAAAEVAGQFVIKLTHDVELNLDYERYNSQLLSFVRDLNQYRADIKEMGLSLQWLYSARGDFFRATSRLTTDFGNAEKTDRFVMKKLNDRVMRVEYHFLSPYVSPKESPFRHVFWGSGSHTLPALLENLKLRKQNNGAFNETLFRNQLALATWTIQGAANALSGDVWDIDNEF
# [2] = target: T1, human recombinant TfR1 protein (amino …); remark: listed apart in the source
# [3] = target: T1, human recombinant TfR1 protein (amino …); remark: listed apart in the source
Binder,EC50 [2],other results
B1,,EC50 [1]: 0.0644 nM
B2,0.0521 nM,
B3,0.0861 nM,
B4,,EC50 [3]: 0.0962 nM
B5,0.0724 nM,
B6,,EC50 [3]: 0.0396 nM
B7,0.0761 nM,
B8,0.0854 nM,
B9,0.151 nM,
B10,0.0595 nM,
B11,,EC50 [1]: 0.0592 nM
